Data from PMC6352652, “Targeting early changes in the synovial microenvironment: a new class of immunomodulatory therapy?” (Annals of the Rheumatic Diseases, 2018).

Key:
[1] = target: T1, fibrinogen-like globe (FBG) domain of human tenascin-C (human, UniProt P24821); test: ELISA; solid phase binding assay: recombinant human TLR4 coated onto a 96-well plate; recombinant human FBG preincubated with C3 or isotype control antibody was added; bound FBG detected; conditions: both partners purified
T1 construct: tenascin-C, human, fibrinogen-like globe (FBG) domain at the C-terminus; contact residues are numbered A2115 to H2175; the constructs used for SPR, the crystal and the solid phase assay may differ; also called human FBG; recombinant human tenascin-C FBG; source: recombinant

[2] = target: T1, fibrinogen-like globe (FBG) domain of …; test: SPR; at 37°C; C3 on human and rat FBG; who was immobilised not stated
[3] = target: T2, FBG domain of rat tenascin-C (Rattus norvegicus, UniProt A0A8I6AG89); test: as above
T2 construct: tenascin-C, rat, fibrinogen-like globe (FBG) domain; Printed only as 'rat antigen'; construct in the supplementary methods; also called rat antigen

T1 sequence (P24821 1975-2201): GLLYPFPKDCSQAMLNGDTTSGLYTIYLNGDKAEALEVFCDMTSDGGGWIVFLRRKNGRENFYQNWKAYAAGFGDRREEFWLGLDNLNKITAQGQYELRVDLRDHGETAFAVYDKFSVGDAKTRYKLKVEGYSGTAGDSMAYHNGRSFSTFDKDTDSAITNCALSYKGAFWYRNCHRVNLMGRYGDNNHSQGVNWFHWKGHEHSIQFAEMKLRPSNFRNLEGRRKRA

IC50 [1]: 45.6 nM
Kd [2]: 0.07 nM
Kd [3]: 1.2 nM
B1: monoclonal antibody C3 (antibody, V domains shown)
VH: QVQLVESGGGLVQPGRSLRLSCAASGFTFDDYAMHWVRQAPGKGLEWVSGISGSGGSTYYADSVKGRFTISRDNAKNSLYLQMNSLRAEDTALYYCAKSYQSDEDAFDIWGQGTMVTVSS
VL: DIQMTQSPASLPTPVGDRVTITCRASQYIQGFLNWYQQKPGKAPKLLIYDASNLETGVPSRFSGSGSGTDFTLTISSLQPEDFATYYCQQSYSTPQTFGQGTKVDIK
notes: variable part as the heavy chain of m2 (crystal structure solved here, Fab chain B); as the light chain of m2 (crystal structure solved here, Fab chain C); in the solid phase and cell assays it is compared with an isotype control antibody; also called clone C3
